Test results as given in paper PMC11940890.

How the values were obtained:
eFSHR-N191Q (equine) = eFSHR-N191Q (equine) (UniProt P47799)
eFSHR-N199Q (equine) = eFSHR-N199Q (equine) (UniProt P47799)
eFSHR-N268Q (equine) = eFSHR-N268Q (equine) (UniProt P47799)
eFSHR-N293Q (equine) = eFSHR-N293Q (equine) (UniProt P47799)
[1] = target: equine follicle-stimulating hormone receptor wild type (eFSHR-wt) (equine) (UniProt P47799)
Chain of equine follicle-stimulating hormone receptor wild type (eFSHR-wt) (equine) (P47799 18-694): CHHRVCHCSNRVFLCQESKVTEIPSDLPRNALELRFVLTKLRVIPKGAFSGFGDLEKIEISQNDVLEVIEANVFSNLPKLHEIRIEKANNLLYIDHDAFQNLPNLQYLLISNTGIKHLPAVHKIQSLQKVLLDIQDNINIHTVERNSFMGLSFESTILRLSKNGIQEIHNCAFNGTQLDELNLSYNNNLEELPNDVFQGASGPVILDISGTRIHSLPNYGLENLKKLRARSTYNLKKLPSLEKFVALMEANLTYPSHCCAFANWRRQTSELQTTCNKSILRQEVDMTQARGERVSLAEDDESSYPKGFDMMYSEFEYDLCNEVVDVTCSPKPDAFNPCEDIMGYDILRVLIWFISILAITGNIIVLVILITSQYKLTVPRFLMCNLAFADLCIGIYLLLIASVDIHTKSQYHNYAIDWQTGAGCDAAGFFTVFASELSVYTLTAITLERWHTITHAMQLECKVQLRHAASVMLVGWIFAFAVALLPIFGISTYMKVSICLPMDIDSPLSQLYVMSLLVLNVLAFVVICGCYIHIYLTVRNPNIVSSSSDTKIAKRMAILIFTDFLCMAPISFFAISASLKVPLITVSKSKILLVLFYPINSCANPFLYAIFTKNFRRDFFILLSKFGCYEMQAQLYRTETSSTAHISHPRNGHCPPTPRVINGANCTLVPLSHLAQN

Chain of Human FSH (hFSH) (P01215 25-116): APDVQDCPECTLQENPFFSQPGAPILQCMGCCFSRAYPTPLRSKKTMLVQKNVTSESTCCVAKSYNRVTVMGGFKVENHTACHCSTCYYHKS
Chain of Human FSH (hFSH) (P01225 19-129): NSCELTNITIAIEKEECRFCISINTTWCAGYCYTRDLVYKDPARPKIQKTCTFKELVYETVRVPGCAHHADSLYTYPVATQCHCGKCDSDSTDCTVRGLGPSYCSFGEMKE
Chain of eFSHR-N293Q (equine) (P47799 18-694 N293Q): as the sequence (P47799 18-694) above, with N276Q counted along it
Chain of eFSHR-N199Q (equine) (P47799 18-694 N199Q): as the sequence (P47799 18-694) above, with N182Q counted along it
Chain of eFSHR-N191Q (equine) (P47799 18-694 N191Q): as the sequence (P47799 18-694) above, with N174Q counted along it
Chain of eFSHR-N268Q (equine) (P47799 18-694 N268Q): as the sequence (P47799 18-694) above, with N251Q counted along it

EC50 of hFSH-stimulated cAMP response (HTRF cAMP assay), CHO-K1 cells expressing the receptor, 30 min at room temperature (eFSHR-N191Q (equine)): 2.11 µg/mL
EC50 of hFSH-stimulated cAMP response (HTRF cAMP assay), CHO-K1 cells expressing the receptor, 30 min at room temperature (eFSHR-N199Q (equine)): 2.21 µg/mL
EC50 of hFSH-stimulated cAMP response (HTRF cAMP assay), CHO-K1 cells expressing the receptor, 30 min at room temperature (eFSHR-N268Q (equine)): 0.806 µg/mL
EC50 of hFSH-stimulated cAMP response (HTRF cAMP assay), CHO-K1 cells expressing the receptor, 30 min at room temperature (eFSHR-N293Q (equine)): 1.24 µg/mL
EC50 of hFSH-stimulated cAMP response (HTRF cAMP assay), CHO-K1 cells expressing the receptor, 30 min at room temperature [1]: 0.99 µg/mL
Substance: Human FSH (hFSH) (from UniProt P01215 25-116; P01225 19-129) (ligand)
